The source of these data is article PMC3411786.

The target of data set [1] is Asp85 (UniProt position 98, WARYADWLFTT). The data set is described as follows: UV-vis. The following applies: pH adjusted with 0.1 M HCl or NaOH, Retinal-reconstituted chromoprotein in purple membrane, ground state. Light/dark adaptation state during the titration is not stated.
The target of data set [2] is Asp85 (UniProt position 98, WARYADWLFTA). The data set is described as follows: UV-vis. The conditions noted are these: pH adjusted with 0.1 M HCl or NaOH, Retinal-reconstituted chromoprotein in purple membrane, ground state. Light/dark adaptation state during the titration is not stated.
[3] abbreviates: 150 mM KCl, none stated (Methods say non-buffered).
The mark [4] stands for this setting: Deionised water with no added salt, apart from the HCl/NaOH titrant, none (non-buffered).

Turning to “Bacteriorhodopsin, wild-type bacterioopsin reconstituted with 13-ethyl retinal (WT-13E-RET) (Halobacterium salinarum)”, the figures for the pKa with Asp85 [1] (setting [3]) and with Asp85 [1] (setting [4]) were 4.5 and 4.7, respectively.
In the case of “Bacteriorhodopsin, wild-type bacterioopsin reconstituted with all-trans retinal (WT-AT) (Halobacterium salinarum)”, the pKa with Asp85 [1] (setting [3]) is on record as 3.9; in the data set with Asp85 [1] (setting [4]), 4.6.
Turning to “Bacteriorhodopsin T90A, bacterioopsin reconstituted with 13-ethyl retinal (T90A-13E-RET) (Halobacterium salinarum; T90A)”, the pKa in the data set with Asp85 [2] (setting [3]) is 6.4; in the data set with Asp85 [2] (setting [4]), 6.7.
Consider “Bacteriorhodopsin T90A, bacterioopsin reconstituted with all-trans retinal (T90A-AT) (Halobacterium salinarum; T90A)”, for which the values for the pKa with Asp85 [2] (setting [3]) and with Asp85 [2] (setting [4]) were 5.8 and 6.1, respectively.
